Source: CN116507641A (XINSHI BIOPHARMACEUTICAL CO LTD, dated 2023)

Key:
小鼠结合素-4 (mouse Nectin-4) [1] = target: T1, 小鼠结合素-4 (mouse Nectin-4) (mouse, UniProt Q8R007 31-508); experiment: flow cytometry on transiently transfected 293T cells; ++ = EC50 5nM to 25nM
T1 construct: Transiently expressed on 293T cells; also called NP_082169.2
T1 sequence: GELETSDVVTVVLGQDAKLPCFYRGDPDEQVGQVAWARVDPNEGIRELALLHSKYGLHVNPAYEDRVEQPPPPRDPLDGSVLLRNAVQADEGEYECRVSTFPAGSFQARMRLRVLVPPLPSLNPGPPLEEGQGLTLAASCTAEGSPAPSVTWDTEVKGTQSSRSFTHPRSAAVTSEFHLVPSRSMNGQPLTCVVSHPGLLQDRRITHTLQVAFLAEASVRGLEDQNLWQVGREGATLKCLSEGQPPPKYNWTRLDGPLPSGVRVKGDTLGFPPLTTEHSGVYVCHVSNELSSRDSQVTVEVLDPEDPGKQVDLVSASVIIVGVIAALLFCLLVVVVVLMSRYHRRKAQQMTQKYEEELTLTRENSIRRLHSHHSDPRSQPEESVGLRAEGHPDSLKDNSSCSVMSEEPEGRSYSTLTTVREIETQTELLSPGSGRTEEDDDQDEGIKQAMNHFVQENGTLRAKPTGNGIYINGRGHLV

大鼠结合素-4 (rat Nectin-4) [2] = target: T2, 大鼠结合素-4 (rat Nectin-4) (rat, UniProt Q8R007 31-508 (mouse entry)); experiment: flow cytometry on transiently transfected 293T cells; +++ = EC50 below 5nM
T2 construct: Transiently expressed on 293T cells; also called NP_001102546.1
T2 chain: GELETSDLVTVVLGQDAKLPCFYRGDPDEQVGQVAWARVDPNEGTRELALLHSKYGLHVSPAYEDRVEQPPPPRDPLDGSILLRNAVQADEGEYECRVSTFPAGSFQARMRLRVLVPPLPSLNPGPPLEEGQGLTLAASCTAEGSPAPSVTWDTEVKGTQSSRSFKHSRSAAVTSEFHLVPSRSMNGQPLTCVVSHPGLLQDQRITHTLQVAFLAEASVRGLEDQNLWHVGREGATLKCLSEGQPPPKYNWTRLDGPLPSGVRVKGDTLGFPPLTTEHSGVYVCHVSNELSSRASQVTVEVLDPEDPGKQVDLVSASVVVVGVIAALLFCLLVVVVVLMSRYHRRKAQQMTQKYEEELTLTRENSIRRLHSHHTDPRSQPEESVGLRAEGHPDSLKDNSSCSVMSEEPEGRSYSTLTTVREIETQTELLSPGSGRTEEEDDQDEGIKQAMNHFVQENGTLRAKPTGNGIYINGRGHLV

[3] = target: T3, 食蟹猴结合素-4 (cynomolgus Nectin-4) (cynomolgus monkey, UniProt Q96NY8 32-510 (human entry)); experiment: as above
T3 construct: Transiently expressed on 293T cells; also called XP_005541277.1
T3 chain: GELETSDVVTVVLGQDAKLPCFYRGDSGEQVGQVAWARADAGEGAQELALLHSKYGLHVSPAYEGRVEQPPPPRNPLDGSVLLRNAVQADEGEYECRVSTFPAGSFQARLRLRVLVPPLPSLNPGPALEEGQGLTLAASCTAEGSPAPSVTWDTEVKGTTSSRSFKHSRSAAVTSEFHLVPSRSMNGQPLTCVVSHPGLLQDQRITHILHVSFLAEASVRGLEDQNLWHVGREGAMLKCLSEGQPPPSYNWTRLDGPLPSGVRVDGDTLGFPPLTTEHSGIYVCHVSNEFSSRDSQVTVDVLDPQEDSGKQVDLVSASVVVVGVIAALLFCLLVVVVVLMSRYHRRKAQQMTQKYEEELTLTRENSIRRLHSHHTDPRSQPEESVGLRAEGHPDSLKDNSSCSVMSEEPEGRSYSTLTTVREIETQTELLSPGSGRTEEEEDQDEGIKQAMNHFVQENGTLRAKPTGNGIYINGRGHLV

[4] = target: T4, 重组人结合素4-His蛋白 (recombinant human Nectin-4-His) (human, UniProt Q96NY8 32-349); experiment: SPR (BIAcore 3000), antibody captured by anti-human IgG on CM5, Nectin-4-His as analyte, 1:1 binding with mass transfer
T4 construct: Analyte in SPR; also called 人重组结合素-4; not shown: His tag
T4 sequence: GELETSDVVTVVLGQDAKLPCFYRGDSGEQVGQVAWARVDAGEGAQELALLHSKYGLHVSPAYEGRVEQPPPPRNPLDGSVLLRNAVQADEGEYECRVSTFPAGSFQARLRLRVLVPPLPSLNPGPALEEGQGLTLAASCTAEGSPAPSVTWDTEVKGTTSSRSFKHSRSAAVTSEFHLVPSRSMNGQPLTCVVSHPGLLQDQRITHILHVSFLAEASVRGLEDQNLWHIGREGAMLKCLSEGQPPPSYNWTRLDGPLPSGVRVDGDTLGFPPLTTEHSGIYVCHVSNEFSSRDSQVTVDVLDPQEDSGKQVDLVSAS

[5] = target: T5, 人结合素-2 (recombinant human Nectin-2; ACROBiosystems PV2-H52E2) (human, UniProt Q92692 32-360); experiment: ELISA or Gator binding assay
T5 construct: extracellular domain
T5 sequence (looked up): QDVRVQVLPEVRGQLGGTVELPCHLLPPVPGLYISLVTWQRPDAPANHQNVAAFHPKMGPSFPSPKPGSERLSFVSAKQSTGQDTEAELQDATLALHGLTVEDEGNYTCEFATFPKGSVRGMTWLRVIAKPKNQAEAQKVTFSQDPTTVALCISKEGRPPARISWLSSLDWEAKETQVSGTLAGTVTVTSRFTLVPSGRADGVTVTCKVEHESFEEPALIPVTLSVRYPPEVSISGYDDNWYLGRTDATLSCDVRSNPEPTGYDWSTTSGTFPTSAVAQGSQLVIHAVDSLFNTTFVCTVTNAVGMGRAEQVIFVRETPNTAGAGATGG

[6] = target: T6, 人结合素-4变体 ΔV结构域 (human Nectin-4 lacking amino acids 32-147) (human, UniProt Q96NY8 148-510); experiment: flow cytometry on transiently transfected 293T cells
T6 construct: Transiently expressed on 293T cells; also called 缺少Ig样V型结构域的变体
T6 sequence: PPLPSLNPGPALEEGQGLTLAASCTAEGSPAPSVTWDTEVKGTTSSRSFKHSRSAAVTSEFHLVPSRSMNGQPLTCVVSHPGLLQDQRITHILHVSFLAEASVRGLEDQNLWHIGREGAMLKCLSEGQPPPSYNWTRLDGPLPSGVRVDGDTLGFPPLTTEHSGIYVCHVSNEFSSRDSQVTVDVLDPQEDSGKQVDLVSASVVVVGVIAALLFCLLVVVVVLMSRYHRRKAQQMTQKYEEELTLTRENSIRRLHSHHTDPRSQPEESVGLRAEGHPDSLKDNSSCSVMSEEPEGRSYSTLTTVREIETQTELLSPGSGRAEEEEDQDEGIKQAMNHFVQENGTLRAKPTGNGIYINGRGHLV

[7] = target: T7, 人重组结合素-4蛋白 (recombinant human Nectin-4, extracellular domain) (human, UniProt Q96NY8 32-349); experiment: ELISA, recombinant human Nectin-4 coated on plate
T7 construct: Protein coated on the ELISA plate; May be the same protein as the Nectin-4-His used in SPR; also called 重组结合素-4(细胞外结构域); 人结合素-4蛋白
T7 sequence: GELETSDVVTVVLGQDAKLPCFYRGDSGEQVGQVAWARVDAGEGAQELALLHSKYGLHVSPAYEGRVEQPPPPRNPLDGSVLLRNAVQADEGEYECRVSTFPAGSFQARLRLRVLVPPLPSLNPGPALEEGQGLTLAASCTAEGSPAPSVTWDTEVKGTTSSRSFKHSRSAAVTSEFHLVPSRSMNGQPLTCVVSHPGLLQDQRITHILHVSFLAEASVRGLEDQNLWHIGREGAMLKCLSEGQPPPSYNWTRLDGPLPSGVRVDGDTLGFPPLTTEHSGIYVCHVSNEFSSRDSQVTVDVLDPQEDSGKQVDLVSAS

小鼠结合素-4 (mouse Nectin-4) [8] = target: T1, 小鼠结合素-4 (mouse Nectin-4); experiment: flow cytometry on transiently transfected 293T cells; + = EC50 25nM to 133nM
大鼠结合素-4 (rat Nectin-4) [9] = target: T2, 大鼠结合素-4 (rat Nectin-4); experiment: as above
大鼠结合素-4 (rat Nectin-4) [10] = target: T2, 大鼠结合素-4 (rat Nectin-4); experiment: flow cytometry on transiently transfected 293T cells; ++ = EC50 5nM to 25nM

| Binder | EC50 (小鼠结合素-4 (mouse Nectin-4) [1]) [nM] | EC50 (大鼠结合素-4 (rat Nectin-4) [2]) [nM] | EC50 [3] [nM] | Kd [4] [nM] | binding result [5] | binding result [6] | EC50 [7] [nM] | EC50 (小鼠结合素-4 (mouse Nectin-4) [8]) [nM] | EC50 (大鼠结合素-4 (rat Nectin-4) [9]) [nM] | EC50 (大鼠结合素-4 (rat Nectin-4) [10]) [nM] |
| --- | --- | --- | --- | --- | --- | --- | --- | --- | --- | --- |
| N4_mAb 6 (antibody, V domains shown, Murine variable regions) VH: QVQLQQSGPELVKPGASVRISCKASGYTFTTYYIHWVKQRPGQGLEWIGWIYPGNVNTKYTENFKDKATLTADKSSSTAYMQLSSLTSEDSAVYFCARGLYYFDFWGQGTTLTVSS VL: SIVMTQTPKFLLVSAGDRVTITCKASQSVNNDVAWYQQKPGQSPKLLIYYASNRDTGVPDRFTGSGFGTDFTFTISSVQAEDLAVYFCQQDYSSPYTFGGGTKLEIK | 5 to 25 | < 5 | < 5 | 0.392 | no binding | no binding (tested: 最高测试的抗体浓度(133nM)) | 0.03 |  |  |  |
| N4_mAb 8 (antibody, V domains shown, Murine variable regions) VH: QVQLQQSGPVLVKPGASVRISCKASGYTFTSYYIHWVKQRPGQGLEWIGWIYPGNVNTKYNENFRDKATLTADKSSSTSYMQLSSLTSEDSAVYFCARGIYYFDYWGQGTTLTVSS VL: IIVMTQTPKFLLVSAGDRVTITCKASQSVNNDVAWYQEKPGQSPKLLIYYASNRDTGVPDRFTGSGYGTDFTFTISTVQAEDLAVYFCHQDYSSPFTFGSGTKLEIK | 5 to 25 | < 5 | < 5 | 0.375 | no binding | no binding (tested: 最高测试的抗体浓度(133nM)) | 0.14 |  |  |  |
| N4_mAb 7 (antibody, V domains shown, Murine variable regions) VH: QVQLQQSGPELVKPGASVKMSCKASGYTFTTYYIHWVKQRPGQGLEWIGWIYPGNAGIKSNEKFKGKTTLTADKSSSTAYMLLSSLTSEDSAIYFCARGVYFFDYWGQGTTLTVSS VL: SIVMTQTPKFLLVSAGDRVTITCKASQSVNNDVSWFQQKPGQSPKLLIYYASNRYTGVPDRFSGSGYGTDFTFTITTVQAEDLAVYFCQQDYSSPYTFGGGTKLEIK | 5 to 25 | < 5 | < 5 | 0.39 | no binding | no binding (tested: 最高测试的抗体浓度(133nM)) | 0.04 |  |  |  |
| N4_mAb 5 (antibody, V domains shown) VH: EVQLQQSGPDLVKPGASVKISCKASGYSFTGHYMHWVKQSHGKSLEWIGRVNPNNGGSSYNQKFKDKAILTVDKSSTTAYMELRSLTSEDSAVYYCARDPLGGSYGFAYWGQGTLVTVSA VL: DIVLTQSPASLAVSLGQRATISCRASQSVTTSSYSYMHWYQQKPGQPPKLLIKYASNLESGVPARFSGSGSGTDFTLNIHPVEEEDTATYYCQHSWEIPYTFGGGTKLEMK |  | < 5 | < 5 |  |  |  |  | 25 to 133 |  |  |
| N4_mAb 1 (antibody, V domains shown) VH: QVQLKQSGPGLVQPSQSLSITCTVSGFSLTNYGVNWVRQPPGKGLEWLGVIWSGGSTDYNAAFISRLSISKDISKSQVFFKMNSLQADDTAKYYCAREGYDGYAMDYWGQGTSVTVSS VL: DIQMTQSPASLSVSVGETVTITCRASENIFSSLAWYQQKQGKSPQLLVYGATNLADGVPSRFSGSGSGTQYSLKINSLQSEDFGTYWCQHFWGNPWTFGGGTKLEIK |  |  | < 5 |  |  |  |  |  |  |  |
| N4_mAb 3 (antibody, V domains shown) VH: EVQLQQSGAELVKPGASVKLSCTVSGFNIKDTYMHWVKQRPEQGLEWIGRIDPANGNTKYDPKFQGKATIIADKASNTAYLQLSSLTSEDAAVYYCAHYYGSSYFAMDCWGQGTSVTVSS VL: DIVMTQSHKFMSTSVGDRVSITCKASQDVSTAVAWYQQKPGQSPKLLIYWASTRHTGVPDRFTGSGSGTDYTLTISSVQTEDLALYYCQQHYSTPLTFGAGTKLELK |  |  | < 5 |  |  |  |  |  | 25 to 133 |  |
| N4_mAb 2 (antibody, V domains shown) VH: QVQLKQSGPNLVQPSQSLSITCTVSGFSLTTYGAHWVRQSPGKGLEWLGVIWRGGSTDYNAAFMSRLSITKDNSKSQVFFKMNSLQADDTAIYYCAKIGYDGYAMDNWGQGTSVTVSS VL: DFQVTQSPASLSASVGETVTITCRTSENIHNYLAWYQQKQGKSPQLLVYNAKTLADGVPSRFSGSGSGTQYSLKINSLQPEDFGTYYCQHFWSSPWTFGGGTKLEIK | 5 to 25 |  | < 5 |  |  |  |  |  |  | 5 to 25 |
| N4_mAb 4 (antibody, V domains shown) VH: DVQLQESGPDLVKPSQSLSLTCTVTGYSITSAYNWHWIRQFPGNKLEWMGYIHYSGRTNYNPSLKSRISITRDTSKNQFFLQLNSLTTEDTATYYCARWITTATGWYLDVWGAGTTVTVSS VL: not shown |  |  | < 5 |  |  |  |  |  | 25 to 133 |  |
